For two substances, activity (% recombination) results are on record in patent US20240175038.

For this data set, the target named is T1, IntC3 (mutant phage lambda integrase) (Enterobacteria phage lambda) (UniProt P03700).
T1 sequence: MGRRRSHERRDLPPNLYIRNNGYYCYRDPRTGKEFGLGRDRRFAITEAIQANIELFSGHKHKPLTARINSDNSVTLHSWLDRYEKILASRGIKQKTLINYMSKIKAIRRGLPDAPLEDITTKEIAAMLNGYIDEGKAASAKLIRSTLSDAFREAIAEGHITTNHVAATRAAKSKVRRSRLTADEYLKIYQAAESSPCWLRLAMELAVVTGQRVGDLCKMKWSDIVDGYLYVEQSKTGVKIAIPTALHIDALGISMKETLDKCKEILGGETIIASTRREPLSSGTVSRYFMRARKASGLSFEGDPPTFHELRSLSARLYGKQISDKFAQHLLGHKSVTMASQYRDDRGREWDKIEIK
Description: cell_activity. To be noted: E. coli MG1655-ISC, scIHF2 co-expressed, arabinose 70 min.

Regarding 21 bp attB homologue in pattPhae2(attL), for the setting “recombination with attL homologue”, the activity (% recombination) was > 90.

Turning to “121 bp attL homologue in pattPhae2(attL)”, where the note is “recombination with attB homologue”, the activity (% recombination) is > 90.
